# B1: LINE1-mini (parent)
# chain: GGCAGAGCUCAACACAGCGUGGCAAAGUGGCUGUGGCUAGACUGCC
# Variants of: B1
# Assay: self-cleavage, relative activity (ratio to wild type); higher = more cleavage; in vitro, sequencing; the parent is a self-cleaving ribozyme
row,Variant,self-cleavage
1,C13U A16C,0.1
2,C13U A16G,0.09
3,C13U A16U,0.13
4,C13G C46G,0.19
5,C13G C46A,0.28
6,C13G C46U,0.46
7,C13G C37G,0.04
8,C13G C37U,0.37
9,C13G C37A,0.13
10,C13G U20G,0.13
11,C13G U20C,0.1
12,C13G U20A,0.13
13,C13A G44C,0.07
14,C13A G44U,0.12
15,C13A G44A,0.09
16,C13G C31G,0.05
17,C13G C31A,0.16
18,C13G C31U,0.13
19,C13U A24G,0.13
20,C13U A24U,0.16
21,C13U A24C,0.15
22,C13G C15G,0.09
23,C13G C15U,0.15
24,C13G C15A,0.1

row,Variant,self-cleavage
1,C13G G36A,0.29
2,C13G G36C,0.08
3,C13G G36U,0.1
4,C13G A16C,0.08
5,C13G A16U,0.15
6,C13G A16G,0.01
7,C13G U43C,0.02
8,C13G U43A,0.11
9,C13G U43G,0.66
10,C13G G27U,0.26
11,C13G G27C,0.08
12,C13G G27A,0.27
13,C13A U28A,0.07
14,C13A U28G,0.09
15,C13A U28C,0.15
16,C13G C23G,0.13
17,C13G C23A,0.29
18,C13G C23U,0.46
19,C13A U38G,0.03
20,C13A U38C,0.1
21,C13A U38A,0.05
22,C13G A26U,0.19
23,C13G A26G,0.08
24,C13G A26C,0.27

row,Variant,self-cleavage
1,C13G U32A,0.09
2,C13G U32G,0.05
3,C13G U32C,0.07
4,C13A U32G,0.08
5,C13A U32A,0.11
6,C13A U32C,0.09
7,C13G A14U,0.09
8,C13G A14G,0.08
9,C13G A14C,0.05
10,C13A G35C,0.07
11,C13A G35A,0.15
12,C13A G35U,1.13
13,C13G G44U,0.06
14,C13G G44A,0.12
15,C13G G44C,0.05
16,C13G G30U,0.19
17,C13G G30C,0.12
18,C13G G30A,0.15
19,C13A G36U,0.12
20,C13A G36C,0.06
21,C13A G36A,0.23
22,C13A U34C,0.06
23,C13A U34G,0.03
24,C13A U34A,0.07

row,Variant,self-cleavage
1,C13U A25U,0.29
2,C13U A25G,0.07
3,C13U A25C,0.13
4,C13G G40U,0.08
5,C13G G40C,0.14
6,C13G G40A,0.13
7,C13A G27C,0.1
8,C13A G27A,0.18
9,C13A G27U,0.08
10,C13G U28A,0.28
11,C13G U28C,0.36
12,C13G U28G,0.35
13,C13A U43C,0.08
14,C13A U43G,0.18
15,C13A U43A,0.21
16,C13G G21U,0.31
17,C13G G21A,0.38
18,C13G G21C,0.33
19,C13G G33U,0.03
20,C13G G33A,0.11
21,C13G G33C,0.04
22,C13A G40U,0.09
23,C13A G40C,0.07
24,C13A G40A,0.09

row,Variant,self-cleavage
1,C13U A26G,0.14
2,C13U A26C,0.24
3,C13U A26U,0.15
4,C13G G19A,0.2
5,C13G G19U,0.11
6,C13G G19C,0.06
7,C13G A41G,0.09
8,C13G A41C,0.04
9,C13G A41U,0.17
10,C13G G35A,0.07
11,C13G G35U,0.85
12,C13G G35C,0.81
13,C13U,0.17
14,C13G,0.22
15,C13G G29U,0.33
16,C13G G29A,0.19
17,C13G G29C,0.11
18,C13U A39G,0.11
19,C13U A39U,0.08
20,C13U A39C,0.13
21,C13G A24G,0.22
22,C13G A24U,0.16
23,C13G A24C,0.07
24,C13G U34A,0.04

row,Variant,self-cleavage
1,C13G U34G,0.03
2,C13G U34C,0.1
3,C13G A25C,0.18
4,C13G A25G,0.11
5,C13G A25U,0.44
6,C13A G29C,0.06
7,C13A G29A,0.19
8,C13A G29U,0.2
9,C13U A41G,0.06
10,C13U A41U,0.15
11,C13U A41C,0.06
12,C13A G30U,0.11
13,C13A G30C,0.14
14,C13A G30A,0.08
15,C13G G22C,0.05
16,C13G G22A,0.21
17,C13G G22U,0.18
18,C13G U38G,0.01
19,C13G U38C,0.41
20,C13G U38A,0.05
21,C13A U20G,0.1
22,C13A U20C,0.04
23,C13A U20A,0.11
24,C13A G33C,0.06

row,Variant,self-cleavage
1,C13A G33U,0.05
2,C13A G33A,0.08
3,C13G C45U,0.26
4,C13G C45G,0.23
5,C13G C45A,0.25
6,C13U A14U,0.1
7,C13U A14C,0.09
8,C13U A14G,0.17
9,C13G G17A,0.06
10,C13G G17U,0.06
11,C13G G17C,0.03
12,C13G C18G,0.07
13,C13G C18U,0.09
14,C13G C18A,0.09
15,C13G C42A,0.07
16,C13G C42G,0.09
17,C13G C42U,0.12
18,C13G A39C,0.16
19,C13G A39G,0.09
20,C13G A39U,0.05
21,C13A G22C,0.05
22,C13A G22U,0.11
23,C13A G22A,0.15

# — the RNAGym collection of RNA variant scans (doi:10.7554/elife.90254)
